Source: PMC10439950 (2023)
Substitutions are numbered along the chain they refer to.

B1: extracellular domain of cynomolgus CD98hc (domain or fragment)
chain: ELPAQKWWHTGALYRIGDLQAFQGHGSGNLAGLKGRLDYLSSLKVKGLVLGPLHKNQKDDVAQTDLLQIDPNFGSKEDFDNLLQSAKKKSIRVILDLTPNYRGENLWFSTQVDSVATKVKDALEFWLQAGVDGFQVRDIENLKDASSFLAEWENITKGFSEDRLLIAGTNSSDLQQIVSLLESNKDLLLTSSYLSDSSFTGEHTKSLVTQYLNATGNRWCSWSLSQAGLLTSFLPAQLLRLYQLMLFTLPGTPVFSYGDEIGLKAAALPGQPVEAPVMLWDESSFPDIPGAVSANMTVKGQSEDPGSLLSLFRQLSDQRSKERSLLHGDFHTFSSGPGLFSYIRHWDQNERFLVVLNFGDVGLSAGLQASDLPASASLPTKADLVLSTQPGREEGSPLELERLKLEPHEGLLLRFPYVA
B2: extracellular domain of human CD98hc (domain or fragment)
chain: RAPRCRELPAQKWWHTGALYRIGDLQAFQGHGAGNLAGLKGRLDYLSSLKVKGLVLGPIHKNQKDDVAQTDLLQIDPNFGSKEDFDSLLQSAKKKSIRVILDLTPNYRGENSWFSTQVDTVATKVKDALEFWLQAGVDGFQVRDIENLKDASSFLAEWQNITKGFSEDRLLIAGTNSSDLQQILSLLESNKDLLLTSSYLSDSGSTGEHTKSLVTQYLNATGNRWCSWSLSQARLLTSFLPAQLLRLYQLMLFTLPGTPVFSYGDEIGLDAAALPGQPMEAPVMLWDESSFPDIPGAVSANMTVKGQSEDPGSLLSLFRRLSDQRSKERSLLHGDFHAFSAGPGLFSYIRHWDQNERFLVVLNFGDVGLSAGLQASDLPASASLPAKADLLLSTQPGREEGSPLELERLKLEPHEGLLLRFPYAA
B3: ATV^CD98hc.6.8:DNP (designed binder)
chain: DKTHTCPPCPAPELLGGPSVFLFPPKPKDTLMISRTPEVTCVVVDVSHEDPEVKFNWYVDGVEVHNAKTKPREEQYNSTYRVVSVLTVLHQDWLNGKEYKCKVSNKALPAPIEKTISKAKGQPREPQVYTLPPSRDELTKNQVSLTCLVKGFYPSDIAVLWNSRFVLENNYKTTPPVLDSDGSFFLYSKLTVDKSRWQQGEIFACNVYHEALHNHYTFKNLALSPGK
B4: TV6.6 as the ATV^CD98hc:DNP clone (designed binder)
chain: B3 chain with E201N

How the values were obtained:
Assay in all cases: SPR
[1] = target: TV6.d6
[2] = target: TV6.d3
[3] = target: TV6.38
[4] = target: ATV^CD98hc.6.39 (human, UniProt P01857 = IgG part)
[5] = target: TV6.d12
[6] = target: ATV^CD98hc.6.29:DNP (human, UniProt P01857 = IgG part)
[7] = target: B1

Row | Kd [1] | Kd [2] | Kd [3] | Kd [4] | Kd [5] | Kd [6] | Kd [7] | Binder
1 | 5000 nM | 2500 nM | 250 nM | 485 nM | 6000 nM | – | – | B1
2 | 550 nM | 275 nM | 43 nM | – | 2100 nM | 20 nM | – | B2
3 | – | – | – | – | – | – | 890 nM | B3
4 | – | – | – | – | – | – | 2100 nM | B4
